Experimental findings from paper PMC3535077 are described below.

The target in this experiment is His6-tagged monovalent streptavidin (UniProt P22629). Put plainly: pull-down.

“C-terminal AviTag Dicer, biotinylated (from UniProt Q9UPY3 1-1922) (enzyme)” had a percent of the Dicer sample retained on the Ni column with His6-streptavidin of 60%.
